Measured values: publication PMC9352680, “A comprehensive thermodynamic model for RNA binding by the Saccharomyces cerevisiae Pumilio protein PUF4”
Numbering of substitutions follows the chain as printed. Numbers in names are those of the source.

T1: PUF4 RNA-binding domain (Saccharomyces cerevisiae, UniProt P25339 537-888)
T1 sequence: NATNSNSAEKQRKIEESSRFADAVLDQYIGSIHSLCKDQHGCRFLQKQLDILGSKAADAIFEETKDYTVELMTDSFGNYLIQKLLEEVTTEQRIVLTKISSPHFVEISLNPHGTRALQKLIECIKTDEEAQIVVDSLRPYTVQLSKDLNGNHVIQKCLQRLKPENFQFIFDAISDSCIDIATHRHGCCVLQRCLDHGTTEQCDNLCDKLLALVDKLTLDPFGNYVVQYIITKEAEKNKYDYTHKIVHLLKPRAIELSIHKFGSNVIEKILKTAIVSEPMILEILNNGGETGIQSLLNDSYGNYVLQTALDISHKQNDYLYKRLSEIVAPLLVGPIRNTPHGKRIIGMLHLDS

B1: Ie_S2_P3E.2_K3.1_C3.2_H3.1_[+1TC]_A3.1_F3.1_T3.2 (ssRNA)
RNA: UUUGAUUAAUAUGAUAUCGUUCUUUCUCUUUCGUAUAUAUAUUCUUUCUCGAUAUCAUAUUAAUCUUU
B2: Ie_S2_P3E.2_K3.1_C3.2_H3.1_[+2CT]_A3.1_F3.1_T3.2 (ssRNA)
RNA: B1 RNA with U31G, G33U
B3: Ie_S2_P3E.2_K3.1_C3.2_H3.1_[+2CC]_A3.1_F3.1_T3.2 (ssRNA)
RNA: B1 RNA with U31G, G33C
B4: Ie_S2_P3E.2_K3.1_C3.2_H3.1_[+3TC]_A3.1_F3.1_T3.2 (ssRNA)
RNA: B1 RNA with U31G, C32U, G33U, U34C
B5: Ie_S2_P3E.2_K3.1_C3.2_H3.1_[+4CC]_A3.1_F3.1_T3.2 (ssRNA)
RNA: B1 RNA with U31G, C32U, G33A, U34C, A35C
B6: Ie_S2_P3E.2_K3.1_C3.2_H3.1_[+2TT]_A3.1_F3.1_T3.2 (ssRNA)
RNA: B1 RNA with U31G, C32U, G33U
B7: Ie_S2_P3E.2_K3.1_C3.2_H3.1_[+3CC]_A3.1_F3.1_T3.2 (ssRNA)
RNA: B1 RNA with U31G, C32U, G33C, U34C
B8: Ie_S2_P3E.2_K3.1_C3.2_H3.1_A3.1_[+5CT]_F3.1_T3.2 (ssRNA)
RNA: B1 RNA with U31G, C32U, G33A, A35C
B9: Ie_S2_P3E.2_K3.1_C3.2_H3.1_[+3CT]_A3.1_F3.1_T3.2 (ssRNA)
RNA: B1 RNA with U31G, C32U, G33C
B10: Ie_S2_P3E.2_K3.1_C3.2_H3.1_[+1CCTC]_A3.1_F3.1_T3.2 (ssRNA)
RNA: UUUGAUUAAUAUGAUAUCGUUCUUUCUCUUCCUCGUAUAUAUAUUCUUUCUCGAUAUCAUAUUAAUCUUU
B11: Ie_S2_P3E.2_K3.1_C3.2_H3.1_[+3CTCT]_A3.1_F3.1_T3.2 (ssRNA)
RNA: B10 RNA with C31G, C32U, U33C, C34U, G35C
B12: Ie_S2_P3E.2_K3.1_C3.2_H3.1_[+2CCTC]_A3.1_F3.1_T3.2 (ssRNA)
RNA: B10 RNA with C31G, U33C, C34U, G35C
B13: Ie_S2_P3E.2_K3.1_C3.2_H3.1_[+2CCCT]_A3.1_F3.1_T3.2 (ssRNA)
RNA: B10 RNA with C31G, U33C, G35U
B14: Ie_S2_P3E.2_K3.1_C3.2_H3.1_[+3CCCT]_A3.1_F3.1_T3.2 (ssRNA)
RNA: B10 RNA with C31G, C32U, U33C, G35C
B15: Ie_S2_P3E.2_K3.1_C3.2_H3.1_[+3CCTC]_A3.1_F3.1_T3.2 (ssRNA)
RNA: B10 RNA with C31G, C32U, U33C, G35U, U36C
B16: Ie_S2_P3E.2_K3.1_C3.2_H3.1_[+2CTCT]_A3.1_F3.1_T3.2 (ssRNA)
RNA: B10 RNA with C31G, G35U
B17: Ie_S2_P3E.2_K3.1_C3.2_H3.1_[+1CCCT]_A3.1_F3.1_T3.2 (ssRNA)
RNA: B10 RNA with U33C, C34U
B18: Ie_S2_P3E.2_K3.1_C3.2_H3.1_[+1C]_A3.1_F3.1_T3.2 (ssRNA)
RNA: UUUGAUUAAUAUGAUAUCGUUCUUUCUCUUCGUAUAUAUAUUCUUUCUCGAUAUCAUAUUAAUCUUU
B19: Ie_S2_P3E.2_K3.1_C3.2_H3.1_A3.1_[+5T]_F3.1_T3.2 (ssRNA)
RNA: B18 RNA with C31G, G32U, U33A, A34U
B20: Ie_S2_P3E.2_K3.1_C3.2_H3.1_[+2T]_A3.1_F3.1_T3.2 (ssRNA)
RNA: B18 RNA with C31G, G32U
B21: Ie_S2_P3E.2_K3.1_C3.2_H3.1_[+4C]_A3.1_F3.1_T3.2 (ssRNA)
RNA: B18 RNA with C31G, G32U, U33A, A34C
B22: Ie_S2_P3E.2_K3.1_C3.2_H3.1_[+1TCTCT]_A3.1_F3.1_T3.2 (ssRNA)
RNA: UUUGAUUAAUAUGAUAUCGUUCUUUCUCUUUCUCUGUAUAUAUAUUCUUUCUCGAUAUCAUAUUAAUCUUU
B23: Ie_S2_P3E.2_K3.1_C3.2_H3.1_[+1CCCTT]_A3.1_F3.1_T3.2 (ssRNA)
RNA: B22 RNA with U31C, U33C, C34U
B24: Ie_S2_P3E.2_K3.1_C3.2_H3.1_[+2CTCTC]_A3.1_F3.1_T3.2 (ssRNA)
RNA: B22 RNA with U31G, G36C
B25: Ie_S2_P3E.2_K3.1_C3.2_H3.1_[+1TTCCT]_A3.1_F3.1_T3.2 (ssRNA)
RNA: B22 RNA with C32U, U33C
B26: Ie_S2_P3E.2_K3.1_C3.2_H3.1_[+2TCTCT]_A3.1_F3.1_T3.2 (ssRNA)
RNA: B22 RNA with U31G, C32U, U33C, C34U, U35C, G36U
B27: Ie_S2_P3E.2_K3.1_C3.2_H3.1_[+3CCCTT]_A3.1_F3.1_T3.2 (ssRNA)
RNA: B22 RNA with U31G, C32U, U33C, U35C, G36U
B28: Ie_S2_P3E.2_K3.1_C3.2_H3.1_[+2CCTCT]_A3.1_F3.1_T3.2 (ssRNA)
RNA: B22 RNA with U31G, U33C, C34U, U35C, G36U
B29: Ie_S2_P3E.2_K3.1_C3.2_H3.1_[+1CCTCT]_A3.1_F3.1_T3.2 (ssRNA)
RNA: B22 RNA with U31C
B30: Ie_S2_P3E.2_K3.1_C3.2_H3.1_[+2TTCCT]_A3.1_F3.1_T3.2 (ssRNA)
RNA: B22 RNA with U31G, C32U, U35C, G36U
B31: Ie_S2_P3E.2_K3.1_C3.2_H3.1_[+3CTCTC]_A3.1_F3.1_T3.2 (ssRNA)
RNA: B22 RNA with U31G, C32U, U33C, C34U, U35C, G36U, U37C
B32: Ie_S2_P3E.2_K3.1_C3.2_H3.1_[+3TTCCT]_A3.1_F3.1_T3.2 (ssRNA)
RNA: B22 RNA with U31G, C32U, C34U, U35C, G36C
B33: Ic_S2_P3E.1_K3.1_C3.1_H3.1_A3.1_[A6C]_F3.1_[T7C]_T3.1 (ssRNA)
RNA: UUUGAUUAAUAUGAUAUCGUUCUUUCUUGUAUCCAUUCUUUCUCGAUAUCAUAUUAAUCUUU
B34: Ic_S2_P3E.1_K3.1_C3.1_H3.1_A3.1_[A6C]_F3.1_[T7A]_T3.1 (ssRNA)
RNA: B33 RNA with C34A
B35: Ic_S2_P3E.1_K3.1_C3.1_H3.1_A3.1_[A6T]_F3.1_[T7A]_T3.1 (ssRNA)
RNA: B33 RNA with C33U, C34A
B36: Ic_S2_P3E.1_K3.1_C3.1_H3.1_A3.1_[A6T]_F3.1_[T7C]_T3.1 (ssRNA)
RNA: B33 RNA with C33U
B37: Ie_S2_P3E.2_K3.1_C3.2_H3.1_[+1CCC]_A3.1_F3.1_T3.2 (ssRNA)
RNA: UUUGAUUAAUAUGAUAUCGUUCUUUCUCUUCCCGUAUAUAUAUUCUUUCUCGAUAUCAUAUUAAUCUUU
B38: Ie_S2_P3E.2_K3.1_C3.2_H3.1_[+4CCT]_A3.1_F3.1_T3.2 (ssRNA)
RNA: B37 RNA with C31G, C32U, C33A, G34C, U35C, A36U
B39: Ie_S2_P3E.2_K3.1_C3.2_H3.1_[+2CTT]_A3.1_F3.1_T3.2 (ssRNA)
RNA: B37 RNA with C31G, C33U, G34U
B40: Ie_S2_P3E.2_K3.1_C3.2_H3.1_[+1TTC]_A3.1_F3.1_T3.2 (ssRNA)
RNA: B37 RNA with C31U, C32U
B41: Ie_S2_P3E.2_K3.1_C3.2_H3.1_[+4CCC]_A3.1_F3.1_T3.2 (ssRNA)
RNA: B37 RNA with C31G, C32U, C33A, G34C, U35C, A36C
B42: Ie_S2_P3E.2_K3.1_C3.2_H3.1_[+2TCC]_A3.1_F3.1_T3.2 (ssRNA)
RNA: B37 RNA with C31G, C32U, G34C
B43: Ie_S2_P3E.2_K3.1_C3.2_H3.1_[+3TTC]_A3.1_F3.1_T3.2 (ssRNA)
RNA: B37 RNA with C31G, C32U, C33U, G34U, U35C
B44: Ie_S2_P3E.2_K3.1_C3.2_H3.1_[+3CTC]_A3.1_F3.1_T3.2 (ssRNA)
RNA: B37 RNA with C31G, C32U, G34U, U35C
B45: Ie_S2_P3E.2_K3.1_C3.2_H3.1_[+1TCC]_A3.1_F3.1_T3.2 (ssRNA)
RNA: B37 RNA with C31U
B46: Ie_S2_P3E.2_K3.1_C3.2_H3.1_[+2TTT]_A3.1_F3.1_T3.2 (ssRNA)
RNA: B37 RNA with C31G, C32U, C33U, G34U
B47: Ie_S2_P3E.2_K3.1_C3.2_H3.1_[+2TCT]_A3.1_F3.1_T3.2 (ssRNA)
RNA: B37 RNA with C31G, C32U, G34U
B48: Ie_S2_P3E.2_K3.1_C3.2_H3.1_[+2CTC]_A3.1_F3.1_T3.2 (ssRNA)
RNA: B37 RNA with C31G, C33U, G34C
B49: Ie_S2_P3E.2_K3.1_C3.2_H3.1_[+4CTT]_A3.1_F3.1_T3.2 (ssRNA)
RNA: B37 RNA with C31G, C32U, C33A, G34C, A36U
B50: Ie_S2_P3E.2_K3.1_C3.2_H3.1_[+3CCC]_A3.1_F3.1_T3.2 (ssRNA)
RNA: B37 RNA with C31G, C32U, G34C, U35C
B51: Ie_S2_P3E.2_K3.1_C3.2_H3.1_[+2TTC]_A3.1_F3.1_T3.2 (ssRNA)
RNA: B37 RNA with C31G, C32U, C33U, G34C

Target: T1, PUF4 RNA-binding domain
Experiment: Mg; RNA-MaP; 20 mM Na-HEPES pH 7.4, 30 mM KOAc, 0.75 mM MgCl2, 0.1% Tween-20, 5% glycerol, 0.1 mg/mL BSA, 2 mM DTT; 25 C; 0.0125-409.6 nM protein
Details: tags: N-His6-TEV cleaved; C-SNAP kept, Cy3B-labelled; label: tethered on chip by stalled RNA polymerase

Row | Binder | Kd
1 | B1 | 39 nM
2 | B2 | 93 nM
3 | B3 | 102 nM
4 | B4 | 12.9 nM
5 | B5 | 2.33 nM
6 | B6 | 14.6 nM
7 | B7 | 34 nM
8 | B8 | 3.75 nM
9 | B9 | 28.3 nM
10 | B10 | 52.3 nM
11 | B11 | 21.2 nM
12 | B12 | 162 nM
13 | B13 | 67.5 nM
14 | B14 | 30.4 nM
15 | B15 | 62.8 nM
16 | B16 | 62.1 nM
17 | B17 | 0.515 nM
18 | B18 | 34.5 nM
19 | B19 | 1.52 nM
20 | B20 | 8.08 nM
21 | B21 | 0.5 nM
22 | B22 | 1.44 nM
23 | B23 | 1.15 nM
24 | B24 | 61.8 nM
25 | B25 | 1.16 nM
26 | B26 | 21.5 nM

Row | Binder | Kd
27 | B27 | 35.7 nM
28 | B28 | 112 nM
29 | B29 | 1.11 nM
30 | B30 | 16.3 nM
31 | B31 | 76.4 nM
32 | B32 | 19.1 nM
33 | B33 | 148 nM
34 | B34 | 107 nM
35 | B35 | 56.9 nM
36 | B36 | 114 nM
37 | B37 | 31.2 nM
38 | B38 | 1.4 nM
39 | B39 | 65.6 nM
40 | B40 | 36.5 nM
41 | B41 | 1.82 nM
42 | B42 | 9.73 nM
43 | B43 | 8.9 nM
44 | B44 | 17.3 nM
45 | B45 | 44.3 nM
46 | B46 | 10.7 nM
47 | B47 | 15.5 nM
48 | B48 | 63.2 nM
49 | B49 | 1.08 nM
50 | B50 | 13.5 nM
51 | B51 | 6.23 nM
